Source: article PMC12833063

Molecular target: anti-PD-L1×avβ3 dual function antibody (B1451)
Assay: SPR; Biacore T200; B1451 captured at about 35 RU on anti-human IgG (Fc) immobilised on a CM5 chip; human αvβ3 injected, 2-fold dilutions 12.5-400 nM, association 120 s; regeneration 10 mM glycine-HCl pH 1.5; 1:1 binding model

Chain of human αvβ3 (P06756 31-1048): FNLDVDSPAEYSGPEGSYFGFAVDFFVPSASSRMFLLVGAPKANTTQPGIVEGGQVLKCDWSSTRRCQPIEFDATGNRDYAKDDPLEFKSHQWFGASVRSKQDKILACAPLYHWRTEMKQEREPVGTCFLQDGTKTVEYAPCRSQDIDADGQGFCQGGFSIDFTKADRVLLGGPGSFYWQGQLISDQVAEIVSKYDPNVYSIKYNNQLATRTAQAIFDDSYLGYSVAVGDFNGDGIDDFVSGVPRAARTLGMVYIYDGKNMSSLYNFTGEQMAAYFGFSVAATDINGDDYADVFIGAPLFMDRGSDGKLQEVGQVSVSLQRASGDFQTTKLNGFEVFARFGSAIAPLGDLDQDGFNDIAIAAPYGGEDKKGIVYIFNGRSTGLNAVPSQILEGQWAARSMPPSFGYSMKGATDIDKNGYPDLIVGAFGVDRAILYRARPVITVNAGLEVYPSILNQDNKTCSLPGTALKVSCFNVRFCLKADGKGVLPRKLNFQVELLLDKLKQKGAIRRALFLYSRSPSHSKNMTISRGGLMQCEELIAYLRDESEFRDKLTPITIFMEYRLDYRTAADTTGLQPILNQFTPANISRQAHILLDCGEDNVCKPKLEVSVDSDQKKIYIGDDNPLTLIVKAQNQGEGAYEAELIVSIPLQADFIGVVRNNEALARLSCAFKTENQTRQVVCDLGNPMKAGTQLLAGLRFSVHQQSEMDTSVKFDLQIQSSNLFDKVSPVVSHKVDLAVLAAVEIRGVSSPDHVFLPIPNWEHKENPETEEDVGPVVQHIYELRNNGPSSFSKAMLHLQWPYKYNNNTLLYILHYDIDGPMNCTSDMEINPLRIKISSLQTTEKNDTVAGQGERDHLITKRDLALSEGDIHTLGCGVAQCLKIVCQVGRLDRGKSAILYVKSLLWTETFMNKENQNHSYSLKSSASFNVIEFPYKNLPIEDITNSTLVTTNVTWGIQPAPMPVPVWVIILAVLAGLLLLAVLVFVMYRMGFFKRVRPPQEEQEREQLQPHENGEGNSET
Chain of human αvβ3 (P05106 27-718): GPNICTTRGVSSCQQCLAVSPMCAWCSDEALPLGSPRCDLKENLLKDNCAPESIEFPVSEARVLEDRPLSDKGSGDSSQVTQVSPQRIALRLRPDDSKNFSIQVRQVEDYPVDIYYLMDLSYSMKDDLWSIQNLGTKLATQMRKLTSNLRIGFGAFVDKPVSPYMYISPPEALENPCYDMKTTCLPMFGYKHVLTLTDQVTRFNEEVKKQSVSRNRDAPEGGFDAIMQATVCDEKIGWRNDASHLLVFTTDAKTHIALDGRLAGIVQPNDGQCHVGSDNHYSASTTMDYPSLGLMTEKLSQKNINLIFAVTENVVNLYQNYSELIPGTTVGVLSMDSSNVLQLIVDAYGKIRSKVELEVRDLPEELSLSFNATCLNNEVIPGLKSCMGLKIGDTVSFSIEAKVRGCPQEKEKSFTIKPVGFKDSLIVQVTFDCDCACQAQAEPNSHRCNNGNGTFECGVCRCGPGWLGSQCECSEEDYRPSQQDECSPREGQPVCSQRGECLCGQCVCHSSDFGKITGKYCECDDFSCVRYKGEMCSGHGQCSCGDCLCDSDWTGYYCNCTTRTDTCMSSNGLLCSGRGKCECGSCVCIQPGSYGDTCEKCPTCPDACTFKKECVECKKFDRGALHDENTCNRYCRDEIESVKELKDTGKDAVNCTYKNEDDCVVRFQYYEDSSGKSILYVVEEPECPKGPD

- Kd: 15.5 µM
Substance: human αvβ3 (from UniProt P06756 31-1048; P05106 27-718) (complex)
